Test system: cocaine
Test: Plasma cocaine, benzoylecgonine and ecgonine methyl ester (LC-MS) and cocaine PK after IV cocaine post-AlbuBChE
Type: in vivo, cynomolgus monkeys
Description: Blood was placed into K2EDTA blood collection tubes with esterase inhibitor diisopropylfluorophosphate (DFP). Tubes were inverted several times and placed on wet ice upon collection. Samples were centrifuged at 2-8° C. within 45 minutes of collection. The resultant plasma was recovered and a single 200 μL aliquot of plasma was placed into polypropylene tubes. Plasma samples were frozen over dry ice and stored at −75±15° C.
The following outline describes the LC-MS-based assay employed for the measurement of cocaine in plasma samples. Prior to MS analysis, plasma samples, calibration standards and controls were extracted using supported liquid extraction (SLE-ISOLUTE, Biotage). Twenty-five microliters of samples (25 μL) received 150 μl of 5% Ammonium hydroxide and 25 μl internal standard solution (Cocaine-d3). After mixing and transfer to SLE plate, samples were eluted with methylene chloride and evaporated to dryness. After resuspension in 50 μl of reconstitution solution—5% ACM in 10 mM ammonium acetate in water, 10 μl was injected onto Thermo Hypercarb column at 0.5 ml/min. Mobile phase was biphasic. Mass spectrophotometric detection was performed using Api 4000, APCI positive interface and Multiple Reaction Monitoring (MRM). Plasma concentrations of cocaine, benzoylecgonine and ecgonine methyl ester were determined using this assay.
When the data permits, pharmacokinetic parameter values for cocaine and its metabolites were determined using plasma concentration-times profiles for individual animals at all the study days of cocaine administration. […] Specifically the model for non-compartmental analysis with IV bolus input for cocaine and extravascular input for the metabolites.

[1] = 1 mg/kg IM, cocaine 1 mg/kg IV 96 hr post-AlbuBChE, 20 min after cocaine
[2] = 1 mg/kg IM, cocaine 1 mg/kg IV 96 hr post-AlbuBChE, 30 min after cocaine
[3] = 1 mg/kg IM, cocaine 1 mg/kg IV 96 hr post-AlbuBChE, 40 min after cocaine
[4] = 1 mg/kg IM, cocaine 1 mg/kg IV 96 hr post-AlbuBChE, 60 min after cocaine
[5] = 1 mg/kg IM, cocaine 1 mg/kg IV 120 hr post-AlbuBChE
[6] = 1 mg/kg IM, cocaine 1 mg/kg IV 120 hr post-AlbuBChE, 5 min after cocaine
[7] = 1 mg/kg IM, cocaine 1 mg/kg IV 120 hr post-AlbuBChE, 10 min after cocaine
[8] = 1 mg/kg IM, cocaine 1 mg/kg IV 120 hr post-AlbuBChE, 15 min after cocaine
[9] = 1 mg/kg IM, cocaine 1 mg/kg IV 120 hr post-AlbuBChE, 20 min after cocaine
[10] = 1 mg/kg IM, cocaine 1 mg/kg IV 120 hr post-AlbuBChE, 30 min after cocaine
[11] = 1 mg/kg IM, cocaine 1 mg/kg IV 120 hr post-AlbuBChE, 40 min after cocaine
[12] = 1 mg/kg IM, cocaine 1 mg/kg IV 120 hr post-AlbuBChE, 60 min after cocaine
[13] = 1 mg/kg IM, cocaine 1 mg/kg IV 240 hr post-AlbuBChE
[14] = 1 mg/kg IM, cocaine 1 mg/kg IV 240 hr post-AlbuBChE, 5 min after cocaine
[15] = 1 mg/kg IM, cocaine 1 mg/kg IV 240 hr post-AlbuBChE, 10 min after cocaine
[16] = 1 mg/kg IM, cocaine 1 mg/kg IV 240 hr post-AlbuBChE, 15 min after cocaine
[17] = 1 mg/kg IM, cocaine 1 mg/kg IV 240 hr post-AlbuBChE, 20 min after cocaine
[18] = 1 mg/kg IM, cocaine 1 mg/kg IV 240 hr post-AlbuBChE, 30 min after cocaine
[19] = 1 mg/kg IM, cocaine 1 mg/kg IV 240 hr post-AlbuBChE, 40 min after cocaine
[20] = 1 mg/kg IM, cocaine 1 mg/kg IV 240 hr post-AlbuBChE, 60 min after cocaine
[21] = 5 mg/kg IM, cocaine 1 mg/kg IV 2 hr post-AlbuBChE
[22] = 5 mg/kg IM, cocaine 1 mg/kg IV 2 hr post-AlbuBChE, 5 min after cocaine
[23] = 5 mg/kg IM, cocaine 1 mg/kg IV 2 hr post-AlbuBChE, 10 min after cocaine
[24] = 5 mg/kg IM, cocaine 1 mg/kg IV 2 hr post-AlbuBChE, 15 min after cocaine
[25] = 5 mg/kg IM, cocaine 1 mg/kg IV 2 hr post-AlbuBChE, 20 min after cocaine
[26] = 5 mg/kg IM, cocaine 1 mg/kg IV 2 hr post-AlbuBChE, 30 min after cocaine
[27] = 5 mg/kg IM, cocaine 1 mg/kg IV 2 hr post-AlbuBChE, 40 min after cocaine
[28] = 5 mg/kg IM, cocaine 1 mg/kg IV 2 hr post-AlbuBChE, 60 min after cocaine
[29] = 5 mg/kg IM, cocaine 1 mg/kg IV 48 hr post-AlbuBChE
[30] = 5 mg/kg IM, cocaine 1 mg/kg IV 48 hr post-AlbuBChE, 5 min after cocaine

With AlbuBChE the “Ecgonine methyl ester plasma concentration (mean)” value [1] was 47.3 ng/mL, the “Mean benzoylecgonine plasma concentration” value [1] was 43.7 ng/mL and the “Mean cocaine plasma concentration” value [1] was 208 ng/mL. For the same substance, the “Ecgonine methyl ester plasma concentration (mean)” value [2] was 57.3 ng/mL, the “Mean benzoylecgonine plasma concentration” value [2] was 47.4 ng/mL and the “Mean cocaine plasma concentration” value [2] was 162 ng/mL. The “Ecgonine methyl ester plasma concentration (mean)” value [3] was 64.4 ng/mL, the “Mean benzoylecgonine plasma concentration” value [3] was 46.7 ng/mL and the “Mean cocaine plasma concentration” value [3] was 123 ng/mL. For the same substance, the “Ecgonine methyl ester plasma concentration (mean)” value [4] was 59.9 ng/mL, the “Mean benzoylecgonine plasma concentration” value [4] was 49.6 ng/mL and the “Mean cocaine plasma concentration” value [4] was 64.8 ng/mL. For the same substance, the “Mean benzoylecgonine AUC(0-t)” value [5] was 2809 ng·min/mL, the “Mean cocaine AUC % Extrap” value [5] was 22.4% and the “Mean cocaine AUC(0-t)” value [5] was 11526 ng·min/mL. The “Mean cocaine AUC(0-∞)” value [5] was 14838 ng·min/mL, the “Mean cocaine C0” value [5] was 491 ng/mL and the “Mean cocaine CI” value [5] was 67.4 mL/min/kg. The “Mean cocaine Vss” value [5] was 2.687 L/kg, the “Mean cocaine t½” value [5] was 28.6 min and the “Ecgonine methyl ester plasma concentration (mean)” value [6] was 42.7 ng/mL. For the same substance, the “Mean benzoylecgonine plasma concentration” value [6] was 37.2 ng/mL, the “Mean cocaine plasma concentration” value [6] was 356 ng/mL and the “Ecgonine methyl ester plasma concentration (mean)” value [7] was 27.4 ng/mL. For the same substance, the “Mean benzoylecgonine plasma concentration” value [7] was 38.9 ng/mL, the “Mean cocaine plasma concentration” value [7] was 263 ng/mL and the “Ecgonine methyl ester plasma concentration (mean)” value [8] was 37.8 ng/mL. For the same substance, the “Mean benzoylecgonine plasma concentration” value [8] was 42.2 ng/mL, the “Mean cocaine plasma concentration” value [8] was 233 ng/mL and the “Ecgonine methyl ester plasma concentration (mean)” value [9] was 31.8 ng/mL. For the same substance, the “Mean benzoylecgonine plasma concentration” value [9] was 40.2 ng/mL, the “Mean cocaine plasma concentration” value [9] was 202 ng/mL and the “Ecgonine methyl ester plasma concentration (mean)” value [10] was 104 ng/mL. For the same substance, the “Mean benzoylecgonine plasma concentration” value [10] was 51.3 ng/mL, the “Mean cocaine plasma concentration” value [10] was 161 ng/mL and the “Ecgonine methyl ester plasma concentration (mean)” value [11] was 68.6 ng/mL. The “Mean benzoylecgonine plasma concentration” value [11] was 50.9 ng/mL, the “Mean cocaine plasma concentration” value [11] was 141 ng/mL and the “Ecgonine methyl ester plasma concentration (mean)” value [12] was 76.8 ng/mL. For the same substance, the “Mean benzoylecgonine plasma concentration” value [12] was 54.4 ng/mL, the “Mean cocaine plasma concentration” value [12] was 79.7 ng/mL and the “Mean benzoylecgonine AUC(0-t)” value [13] was 3660 ng·min/mL. For the same substance, the “Mean cocaine AUC % Extrap” value [13] was 26.7%, the “Mean cocaine AUC(0-t)” value [13] was 14364 ng·min/mL and the “Mean cocaine AUC(0-∞)” value [13] was 19623 ng·min/mL. The “Mean cocaine C0” value [13] was 467 ng/mL, the “Mean cocaine CI” value [13] was 51.1 mL/min/kg and the “Mean cocaine Vss” value [13] was 2.288 L/kg. For the same substance, the “Mean cocaine t½” value [13] was 31.0 min, the “Ecgonine methyl ester plasma concentration (mean)” value [14] was 92.7 ng/mL and the “Mean benzoylecgonine plasma concentration” value [14] was 40.0 ng/mL. The “Mean cocaine plasma concentration” value [14] was 397 ng/mL, the “Ecgonine methyl ester plasma concentration (mean)” value [15] was 21.9 ng/mL and the “Mean benzoylecgonine plasma concentration” value [15] was 47.2 ng/mL. The “Mean cocaine plasma concentration” value [15] was 340 ng/mL, the “Ecgonine methyl ester plasma concentration (mean)” value [16] was 25.9 ng/mL and the “Mean benzoylecgonine plasma concentration” value [16] was 55.0 ng/mL. For the same substance, the “Mean cocaine plasma concentration” value [16] was 300 ng/mL, the “Ecgonine methyl ester plasma concentration (mean)” value [17] was 29.5 ng/mL and the “Mean benzoylecgonine plasma concentration” value [17] was 56.7 ng/mL. For the same substance, the “Mean cocaine plasma concentration” value [17] was 259 ng/mL, the “Ecgonine methyl ester plasma concentration (mean)” value [18] was 41.3 ng/mL and the “Mean benzoylecgonine plasma concentration” value [18] was 64.6 ng/mL. The “Mean cocaine plasma concentration” value [18] was 218 ng/mL, the “Ecgonine methyl ester plasma concentration (mean)” value [19] was 51.8 ng/mL and the “Mean benzoylecgonine plasma concentration” value [19] was 68.3 ng/mL. For the same substance, the “Mean cocaine plasma concentration” value [19] was 181 ng/mL, the “Ecgonine methyl ester plasma concentration (mean)” value [20] was 54.3 ng/mL and the “Mean benzoylecgonine plasma concentration” value [20] was 75.2 ng/mL. The “Mean cocaine plasma concentration” value [20] was 117 ng/mL, the “Mean benzoylecgonine AUC(0-t)” value [21] was 1405 ng·min/mL and the “Mean cocaine AUC(0-t)” value [21] was 3289 ng·min/mL. The “Mean cocaine C0” value [21] was 271 ng/mL, the “Ecgonine methyl ester plasma concentration (mean)” value [22] was 337 ng/mL and the “Mean benzoylecgonine plasma concentration” value [22] was 22.3 ng/mL. The “Mean cocaine plasma concentration” value [22] was 145 ng/mL, the “Ecgonine methyl ester plasma concentration (mean)” value [23] was 321 ng/mL and the “Mean benzoylecgonine plasma concentration” value [23] was 23.7 ng/mL. For the same substance, the “Mean cocaine plasma concentration” value [23] was 77.9 ng/mL, the “Ecgonine methyl ester plasma concentration (mean)” value [24] was 363 ng/mL and the “Mean benzoylecgonine plasma concentration” value [24] was 22.0 ng/mL. The “Mean cocaine plasma concentration” value [24] was 43.5 ng/mL, the “Ecgonine methyl ester plasma concentration (mean)” value [25] was 331 ng/mL and the “Mean benzoylecgonine plasma concentration” value [25] was 22.9 ng/mL. The “Mean cocaine plasma concentration” value [25] was 12.8 ng/mL, the “Ecgonine methyl ester plasma concentration (mean)” value [26] was 266 ng/mL and the “Mean benzoylecgonine plasma concentration” value [26] was 31.1 ng/mL. For the same substance, the “Mean cocaine plasma concentration” value [26] was 110 ng/mL, the “Ecgonine methyl ester plasma concentration (mean)” value [27] was 308 ng/mL and the “Mean benzoylecgonine plasma concentration” value [27] was 21.3 ng/mL. The “Mean cocaine plasma concentration” value [27] was 4.96 ng/mL, the “Ecgonine methyl ester plasma concentration (mean)” value [28] was 248 ng/mL and the “Mean benzoylecgonine plasma concentration” value [28] was 20.1 ng/mL. The “Mean cocaine plasma concentration” value [28] was 2.26 ng/mL, the “Mean benzoylecgonine AUC(0-t)” value [29] was 1441 ng·min/mL and the “Mean cocaine AUC % Extrap” value [29] was 3.0%. For the same substance, the “Mean cocaine AUC(0-t)” value [29] was 3015 ng·min/mL, the “Mean cocaine AUC(0-∞)” value [29] was 3110 ng·min/mL and the “Mean cocaine C0” value [29] was 177 ng/mL. For the same substance, the “Mean cocaine CI” value [29] was 325 mL/min/kg, the “Mean cocaine Vss” value [29] was 5.729 L/kg and the “Mean cocaine t½” value [29] was 11.4 min. The “Ecgonine methyl ester plasma concentration (mean)” value [30] was 119 ng/mL, the “Mean benzoylecgonine plasma concentration” value [30] was 20.0 ng/mL and the “Mean cocaine plasma concentration” value [30] was 126 ng/mL.

Source: US8541373B2, “BChE albumin fusions for the treatment of cocaine abuse” (priority 2009, dated 2013)
